T1: Abp1, P15891
T1 sequence (P15891 535-592, looked up): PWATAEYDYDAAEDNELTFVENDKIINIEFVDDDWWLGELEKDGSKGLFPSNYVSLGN

T2: Bbc1, P47068
T2 sequence (P47068 1-78, looked up): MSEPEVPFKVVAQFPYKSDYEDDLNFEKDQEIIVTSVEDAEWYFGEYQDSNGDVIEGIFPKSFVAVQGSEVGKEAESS

T3: Boi1, P38041
T3 sequence (P38041 1-86, looked up): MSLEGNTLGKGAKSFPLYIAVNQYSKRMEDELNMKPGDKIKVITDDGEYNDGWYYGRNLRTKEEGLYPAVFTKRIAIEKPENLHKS

T4: Boi2, P39969
T4 sequence (P39969 32-116, looked up): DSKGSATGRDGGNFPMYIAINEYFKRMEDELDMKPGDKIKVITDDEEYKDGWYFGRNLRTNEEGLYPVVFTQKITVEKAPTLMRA

T5: Bud14, P27637
T5 sequence (P27637 247-328, looked up): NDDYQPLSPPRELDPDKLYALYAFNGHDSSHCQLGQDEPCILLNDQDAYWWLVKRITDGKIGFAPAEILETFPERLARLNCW

T6: Bzz1-1, P38822
T6 sequence (P38822 478-572, looked up): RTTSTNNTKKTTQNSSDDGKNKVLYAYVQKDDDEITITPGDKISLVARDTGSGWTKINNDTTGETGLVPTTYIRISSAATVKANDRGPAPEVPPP

T7: Bzz1-2, P38822
T7 sequence (P38822 568-633, looked up): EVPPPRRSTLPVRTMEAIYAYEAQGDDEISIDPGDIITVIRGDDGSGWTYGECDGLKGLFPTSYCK

T8: Cdc25, P04821
T8 sequence (P04821 50-136, looked up): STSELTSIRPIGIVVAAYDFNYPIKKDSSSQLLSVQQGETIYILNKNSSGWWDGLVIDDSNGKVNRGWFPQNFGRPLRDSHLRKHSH

T9: Cyk3, Q07533
T9 sequence (Q07533 1-83, looked up): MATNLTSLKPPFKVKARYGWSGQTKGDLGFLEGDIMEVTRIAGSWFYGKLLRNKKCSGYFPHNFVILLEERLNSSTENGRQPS

T10: Fus1, P11710
T10 sequence (P11710 432-512, looked up): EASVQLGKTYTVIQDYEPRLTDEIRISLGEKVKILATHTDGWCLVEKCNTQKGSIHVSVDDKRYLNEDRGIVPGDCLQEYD

T11: Hof1, Q05080
T11 sequence (Q05080 590-669, looked up): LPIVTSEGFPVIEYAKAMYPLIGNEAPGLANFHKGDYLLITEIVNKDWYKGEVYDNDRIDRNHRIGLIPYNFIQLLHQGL

T12: Hse1, P38753
T12 sequence (P38753 208-285, looked up): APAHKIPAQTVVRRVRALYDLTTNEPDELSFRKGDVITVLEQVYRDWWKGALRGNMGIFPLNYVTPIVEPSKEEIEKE

T13: Lsb1, P53281
T13 sequence (P53281 45-122, looked up): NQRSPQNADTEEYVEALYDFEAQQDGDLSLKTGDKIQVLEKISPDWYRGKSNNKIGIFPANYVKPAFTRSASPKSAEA

T14: Lsb3, P43603
T14 sequence (P43603 385-451, looked up): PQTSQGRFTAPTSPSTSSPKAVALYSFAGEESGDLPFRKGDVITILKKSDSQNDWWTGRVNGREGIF

T15: Lsb4, P32793
T15 sequence (P32793 402-468, looked up): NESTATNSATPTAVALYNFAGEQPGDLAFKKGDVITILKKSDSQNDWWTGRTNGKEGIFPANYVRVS

T16: Myo5, Q04439
T16 sequence (Q04439 1072-1160, looked up): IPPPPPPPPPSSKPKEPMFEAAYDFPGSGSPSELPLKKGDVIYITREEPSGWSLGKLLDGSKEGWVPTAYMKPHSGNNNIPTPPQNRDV

T17: Nbp2, Q12163
T17 sequence (Q12163 103-180, looked up): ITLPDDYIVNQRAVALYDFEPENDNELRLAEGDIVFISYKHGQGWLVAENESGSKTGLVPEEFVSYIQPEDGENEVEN

T18: Pex13, P80667
T18 sequence (P80667 295-386, looked up): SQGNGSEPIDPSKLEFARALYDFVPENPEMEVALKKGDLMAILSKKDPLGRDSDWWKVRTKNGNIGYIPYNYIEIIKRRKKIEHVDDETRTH

T19: Pin3, Q06449
T19 sequence (Q06449 53-122, looked up): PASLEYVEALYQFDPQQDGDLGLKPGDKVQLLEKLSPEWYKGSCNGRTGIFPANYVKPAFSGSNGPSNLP

T20: Sla1-2, P32790
T20 sequence (P32790 60-140, looked up): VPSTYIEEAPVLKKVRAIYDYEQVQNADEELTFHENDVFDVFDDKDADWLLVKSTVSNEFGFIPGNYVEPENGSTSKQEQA

T21: Sla1-3, P32790
T21 sequence (P32790 344-424, looked up): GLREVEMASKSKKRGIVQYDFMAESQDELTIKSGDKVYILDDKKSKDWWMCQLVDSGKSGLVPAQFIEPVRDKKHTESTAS


Tests used:
Assay in all cases: SPOT array
Abp1, P15891 = biological target: T1, Abp1, P15891; conditions: median of control spots 935
Bbc1, P47068 = biological target: T2, Bbc1, P47068; conditions: median of control spots 796
Bem1-1, P29366 = conditions: median of control spots 4282
Chain of Bem1-1, P29366 (P29366 55-141): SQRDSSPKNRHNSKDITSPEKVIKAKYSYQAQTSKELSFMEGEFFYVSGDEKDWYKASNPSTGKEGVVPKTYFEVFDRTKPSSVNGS

Bem1-2, P29366 = conditions: median of control spots 4347
Chain of Bem1-2, P29366 (P29366 139-227): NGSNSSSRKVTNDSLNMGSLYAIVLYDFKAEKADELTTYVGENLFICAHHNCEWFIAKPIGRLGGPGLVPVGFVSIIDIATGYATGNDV

Boi1, P38041 = biological target: T3, Boi1, P38041; conditions: median of control spots 1162
Boi2, P39969 = biological target: T4, Boi2, P39969; conditions: median of control spots 1161
Bud14, P27637 = biological target: T5, Bud14, P27637; conditions: median of control spots 956
Bzz1-1, P38822 = biological target: T6, Bzz1-1, P38822; conditions: median of control spots 4446
Bzz1-2, P38822 = biological target: T7, Bzz1-2, P38822; conditions: median of control spots 4538
Cdc25, P04821 = biological target: T8, Cdc25, P04821; conditions: median of control spots 969
Cyk3, Q07533 = biological target: T9, Cyk3, Q07533; conditions: median of control spots 1451
Fus1, P11710 = biological target: T10, Fus1, P11710; conditions: median of control spots 1200
GST = conditions: median of control spots 978
Hof1, Q05080 = biological target: T11, Hof1, Q05080; conditions: median of control spots 4086
Hse1, P38753 = biological target: T12, Hse1, P38753; conditions: median of control spots 1727
Lsb1, P53281 = biological target: T13, Lsb1, P53281; conditions: median of control spots 388
Lsb3, P43603 = biological target: T14, Lsb3, P43603; conditions: median of control spots 406
Lsb4, P32793 = biological target: T15, Lsb4, P32793; conditions: median of control spots 397
Myo3, P36006 = conditions: median of control spots 468
Myo5, Q04439 = biological target: T16, Myo5, Q04439; conditions: median of control spots 471
Nbp2, Q12163 = biological target: T17, Nbp2, Q12163; conditions: median of control spots 357
Pex13, P80667 = biological target: T18, Pex13, P80667; conditions: median of control spots 1341
Pin3, Q06449 = biological target: T19, Pin3, Q06449; conditions: median of control spots 2171
Rvs167, P39743 = conditions: median of control spots 2707
Chain of Rvs167, P39743 (P39743 419-482): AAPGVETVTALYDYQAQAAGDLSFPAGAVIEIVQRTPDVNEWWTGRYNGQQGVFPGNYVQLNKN

Sho1, P40073 = conditions: median of control spots 1148
Chain of Sho1, P40073 (P40073 287-367): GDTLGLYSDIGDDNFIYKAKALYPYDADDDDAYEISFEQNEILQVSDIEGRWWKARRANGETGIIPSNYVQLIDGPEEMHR

Sla1-2, P32790 = biological target: T20, Sla1-2, P32790; conditions: median of control spots 712
Sla1-3, P32790 = biological target: T21, Sla1-3, P32790; conditions: median of control spots 5475

| Binder | SPOT intensity (Abp1, P15891) | SPOT intensity (Bbc1, P47068) | SPOT intensity (Bem1-1, P29366) | SPOT intensity (Bem1-2, P29366) | SPOT intensity (Boi1, P38041) | SPOT intensity (Boi2, P39969) | SPOT intensity (Bud14, P27637) | SPOT intensity (Bzz1-1, P38822) | SPOT intensity (Bzz1-2, P38822) | SPOT intensity (Cdc25, P04821) | SPOT intensity (Cyk3, Q07533) | SPOT intensity (Fus1, P11710) | SPOT intensity (GST) | SPOT intensity (Hof1, Q05080) | SPOT intensity (Hse1, P38753) | SPOT intensity (Lsb1, P53281) | SPOT intensity (Lsb3, P43603) | SPOT intensity (Lsb4, P32793) | SPOT intensity (Myo3, P36006) | SPOT intensity (Myo5, Q04439) | also measured |
| --- | --- | --- | --- | --- | --- | --- | --- | --- | --- | --- | --- | --- | --- | --- | --- | --- | --- | --- | --- | --- | --- |
| TKIRRRPQQPLTDFT | 121 | 190 | 0 | 1 | 1 | 1 | 24 | 0 | 6 | 27 | 1 | 6 | 2 | 0 | 1 | 30 | 4 | 8 | 14 | 2 | SPOT intensity (Nbp2, Q12163): 2; SPOT intensity (Pex13, P80667): 3; SPOT intensity (Pin3, Q06449): 11; SPOT intensity (Rvs167, P39743): 1; SPOT intensity (Sho1, P40073): 120; SPOT intensity (Sla1-2, P32790): 1; SPOT intensity (Sla1-3, P32790): 20 |
| RSRRSSFAYPQQVAI | 28 | 24 | 0 | 0 | 1 | 0 | 3 | 1 | 1 | 10 | 0 | 26 | 0 | 4 | 5 | 0 | 2 | 0 | 8 | 0 | SPOT intensity (Nbp2, Q12163): 0; SPOT intensity (Pex13, P80667): 4; SPOT intensity (Pin3, Q06449): 8; SPOT intensity (Rvs167, P39743): 2; SPOT intensity (Sho1, P40073): 64; SPOT intensity (Sla1-2, P32790): 1; SPOT intensity (Sla1-3, P32790): 29 |
| YRRKSIPFAPHQITA | 12 | 2 | 0 | 3 | 0 | 1 | 0 | 0 | 5 | 2 | 0 | 2 | 1 | 5 | 9 | 8 | 0 | 2 | 0 | 0 | SPOT intensity (Nbp2, Q12163): 0; SPOT intensity (Pex13, P80667): 10; SPOT intensity (Pin3, Q06449): 9; SPOT intensity (Rvs167, P39743): 0; SPOT intensity (Sho1, P40073): 17; SPOT intensity (Sla1-2, P32790): 0; SPOT intensity (Sla1-3, P32790): 28 |

— PMC2756588
